The target in experiment [1] is T1, his6-Sec18 (S. cerevisiae, UniProt P18759 1-758).
T1 sequence (looked up): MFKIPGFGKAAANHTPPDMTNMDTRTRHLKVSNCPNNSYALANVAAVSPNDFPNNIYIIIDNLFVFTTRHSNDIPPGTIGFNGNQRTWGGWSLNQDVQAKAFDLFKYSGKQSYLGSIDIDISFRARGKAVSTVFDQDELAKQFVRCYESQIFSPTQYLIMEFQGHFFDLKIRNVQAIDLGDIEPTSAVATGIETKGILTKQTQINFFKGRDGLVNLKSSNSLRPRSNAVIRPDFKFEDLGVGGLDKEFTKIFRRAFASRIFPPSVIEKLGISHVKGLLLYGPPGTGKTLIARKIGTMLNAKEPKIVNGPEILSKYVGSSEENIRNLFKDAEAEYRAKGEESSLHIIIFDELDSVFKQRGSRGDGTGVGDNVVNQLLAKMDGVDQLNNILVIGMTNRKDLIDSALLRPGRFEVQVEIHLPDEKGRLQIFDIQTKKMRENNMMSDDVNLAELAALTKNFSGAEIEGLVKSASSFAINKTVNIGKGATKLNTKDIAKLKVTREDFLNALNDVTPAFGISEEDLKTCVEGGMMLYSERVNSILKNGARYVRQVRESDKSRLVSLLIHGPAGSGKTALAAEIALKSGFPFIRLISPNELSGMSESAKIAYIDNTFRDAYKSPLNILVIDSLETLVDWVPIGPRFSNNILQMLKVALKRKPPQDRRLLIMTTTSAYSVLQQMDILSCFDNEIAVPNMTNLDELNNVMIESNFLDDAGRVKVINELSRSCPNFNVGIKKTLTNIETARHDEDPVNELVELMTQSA
In words: liposome co-floatation.

Experiment [2] deals with T1, his6-Sec18. In words: liposome co-floatation. This is another data set of the same source.

Where a chain is given by its changes, count along the chain named.

B1: Sec17-K159EK163E (natural protein, S. cerevisiae, UniProt P32602 1-292, looked up)
chain: MSDPVELLKRAEKKGVPSSGFMKLFSGSDSYKFEEAADLCVQAATIYRLRKELNLAGDSFLKAADYQKKAGNEDEAGNTYVEAYKCFKSGGNSVNAVDSLENAIQIFTHRGQFRRGANFKFELGEILENDLHDYAKAIDCYELAGEWYAQDQSVALSNECFIECADLKALDGQYIEASDIYSKLIKSSMGNRLSQWSLKDYFLKKGLCQLAATDAVAAARTLQEGQSEDPNFADSRESNFLKSLIDAVNEGDSEQLSEHCKEFDNFMRLDKWKITILNKIKESIQQQEDDLL
B1: in the experiment with his6-Sec18 [1], the binding result was “binds”.

B2: his6-Sec17 (natural protein, S. cerevisiae, UniProt P32602 1-292, looked up)
chain: B1 chain with E159K, E163K
In the case of B2, the “stoichiometry N” value in the experiment with his6-Sec18 [2] was ~3 mol Sec17 per mol Sec18 hexamer.

The record behind these values is article PMC9634978 (Molecular Biology of the Cell, 2022).
